The data set in a line: soluble on expression in E. coli; label from the status in PepcDB or PDB records.
Take “SNAMKFSEFRYERPDIAQLQASFQEALDSFRRAGSAALQHEAMKRINELRRRYSTMANLCHIRHTIDTNDEFYKKEQDFFDETEPVVKGLVNDYYRALVSSPFRAELEQVWGKQLFALAETQLKTYAPVIVEDLQKENKLASEYTKLIASAKIMFEGEERTLAQLQPFVESPDRAMRQRASEARFSFFKDYEKELDELYDELVHVRTAIARKLGFQNFVELGYARLGRTDYNADMVAGYRRQVKTHIVPLAAKLRERQRQRIQVEKLYYYDEPFMFPTGNPTPKGDADWIVQNGRQMYEELSPETGEFFRYMVEHELMDLVAKKGKAGGGYCTYIDDYKAPFIFSNFTGTSGDIDVLTHEAGHAFQVYESRHYDIPEYNWPTLEACEIHSMSMEFFTWPWMELFFGEDADKYRFAHLSDALLFLPYGVAVDEFQHAVYENPDMTPAERKSVWRNIEKAYLPTRDYADHDYLERGGFWQRQGHIYTDPFYYIDYTLAQVCAFQFWKRAQEDRASAWRDYVALCRLGGSRPFTELVKSANLQSPFADGAVASVVGHIERWLDSVDDKAL”: the “soluble on expression in E. coli” value is “soluble”.
Under “MGYIQSGKSKVEIVNVSETVTSAANVSQYPVESGAPITDNMMYTGGPVTISGWILAKNGNAAEQAYNTLVAWQKDVRWIVYRGRSYFKNAVIQDISKGYDTVENGFTITITLQPIRVAKTIWEKIPQPPVAKQPSKPSNAVYVTVQPGNTYWGWWQQYGTSIQQLRDWNKWPDRFIPIGARARVK” stands “not soluble”.
Under “MGSDKIHHHHHHMMYQTYDLYSRSAEMMNGFISVNQQLLTHPFNPFSNTLLGKSINAALDSAYHHTKVYDKQPFDIKTTIIDGETVNIDEQVILAKPFCNLIHFKQDTKVQQPKLFLVAPLSGHHATLLKATIERLILDHDVYITDWLDAKNVPLSEGNFDFDDYVTYLIEFMKEIGEDTHVLAVCQPAVQALIATAVLAKDKDAATPKSLTIIAGPIDTSINPNELNKYASSKDLSWFENNVIMTVPERFPGAGRKVYPGFIQLTSFMAMNIENHVKKHTDYFGHVFHGKEDKQESHRDFYDEYLAVLDLNSEFYLETLDRVFINQDLANGKMTYHGELVDLSAITDTALHTIEGKNDDICSLGQTQAAQALCSGIPEQNKLDQVFDGVGHFGTFSGSAFRERIAPSIAEFIQKHK” stands “not soluble”; under “MGHHHHHHSHATWHSALRGDAGLDSCRHVDSKCSGLHSSYRNLGTRQCPFSFLAEVMGKEPHFHSCLQVSHEFALNFNPSNPYCAGIQGIVDAYRQALPQVRLYGPTNFAPIINHVARFAQYFMLLLLTDGAVTDVEATREAVVRASNLPMSVIIVGVGGADFEAMEQLDADGGPLHTRSGQAAARDIVQFVPYRRFQNAPREALAQTVLAEVPTQLVSYFRAQGWAPLKPLPPSAKDPAQAPQA”, “not soluble”; under “PKTQRGIYHNLKESEYVASNTDVTFFFSSELYLNKFLDGYQEYRKKFNKKIERVAVTPWNMDMLADITFYSEVEKRGFHAWLKGDNATWREVHVYALRIMTKPNTLDWSRIQKPRLRERRKSM”, “soluble”.
Under “MDRRRFLVGLLGLGLARGQGLRVEEVVGGLEVPWALAFLPDGGMLIAERPGRIRLFREGRLSTYAELSVYHRGESGLLGLALHPRFPQEPYVYAYRTVAEGGLRNQVVRLRHLGERGVLDRVVLDGIPARPHGLHSGGRIAFGPDGMLYVTTGEVYERELAQDLASLGGKILRLTPEGEPAPGNPFLGRRGARPEVYSLGHRNPQGLAWHPKTGELFSSEHGPSGEQGYGHDEVNLIVPGGNYGWPRVVGRGNDPRYRDPLYFWPQGFPPGNLAFFRGDLYVAGLRGQALLRLVLEGERGRWRVLRVETALSGFGRLREVQVGPDGALYVTTSNRDGRGQVRPGDDRVLRLL” stands “soluble”; under “MKNSFQTLKTLTTKSGTYGYYDLQELERKGVAEVSRLPFSIRVMLESLLRNEDGYQVTREDIEALARWRPDPGEINVPLKLARVILQDFTGVPAVVDLAAMRDAIKAKGGDPKRINPVVPADLVIDHSVQVDAFGTAYAFFYNVEKEYERNRERYLLLKWAQNALENFRVVPPGTGIVHQVNIEYLTKVVMTGKRDGLTLAFPDSLVGTDSHTTMVNGLGVLGWGVGGIEAEAVMLGQPYYMLAPRVVGFKLYGELPEGATATDLVLTVTEMLRKHGVVGKFVEFYGPGVAKLSTPDRATIANMAPEYGATMGFFPVDEETLNYLRQTGRPEELVELVEAYTKAVGLFRTPEAEEKVQYSEYLELDLSAVEPSLAGPKRPQDRVPLKEVKKSFLAHLTKPVKERGFGLSEDQLQRKVLVKRRDEEFELTHGSVVIAAITSCTNTSNPSVMLGAGLLAKKAVEAGLDRKPWVKTSLAPGSKVVTDYLEMSGLMPFLEALGFHLVGYGCTTCIGNSGPLPEDIAKAVEEGNLVVAAVLSGNRNFEGRINPHVKANYLASPMLVVAYALAGRMDIDFTTEPLGFDPNGKPIYLKDIWPSMEEIREAIRKTLDPELFKKEYSKVFEGDERWQALPAPTGELYQWDPESTYIQNPPFFEDLGERKVEDIRGARVLLVLGDSVTTDHISPAGAIPVKSPAGQYLISKGVKPEDFNSYGSRRGNHEVMMRGTFANIRIKNLMLDGIEGGYAKKLPEGDVDFVYNVAMRYKAEGTPLLVIAGKEYGTGSSRDWAAKGTYLLGIRAVLAESFERIHRSNLVGMGVLPLEFLPGENRETLGLTGYEVYDILGLEDLKPRKLVDIVARREDGSEVRFQAIARLDTPVEVDYYKNGGILQTVLLNMLKEAKATE”, “soluble”.
As for “MASTKSELIERLATQQSHIPAKTVEDAVKEMLEHMASTLAQGGSGGLTKAEMSEYLFDKLGLSKRDAKELVELFFEEIRRALENGEQVELSGFGNFDLRDKNQRPGRNPKTGEDIPITARRVVTFRPGQKLKSRVENAGGGERIEIRGFGSFSLHYRAPRTGRNPKTGDKVELEGKYVPHFKPGKELRDRANIYGGSGHHHHHH”, the “soluble on expression in E. coli” value is recorded as “soluble”.
Under “MFTAKLIKGKTYNVMGITFRAGVSQTVPKKLYEYLNENPYFILTQELNNQKDDPINYTESELKGMNKAEHESIISNLGRNPSDFKNADERIAYILKQIDNKGELEHHHHHH” stands “soluble”.
Under “MSTTGSAPLNLREWTAPEKLLPNGSPLVPVDARGADWHGIELGELDLRGAKLCRCDLRGTDLSHCQLDGADLRLARYDSQTVVPVGFDLSNSGAVGPGAKLNGVYLNSSDLRGMDLRGSMLLGSYLSGADLSGAILDGVSLAGSDLRSSTMRGAMCRGTRFGTCELDMADLRGANLEGAVLETVESIRGADFSLCTGLGAQIDALLSRSVAELDCWNPLTRSTTRDSLESLRAARSD” stands “not soluble”; under “MELVKTIQIGDDIYPPIPDLFGIQENQEFNLYKSTDGTLVLSPSDSKLSADHQSISSDEQMTTAVEQARLDEIATSVLSRHLDAFKELTE”, “not soluble”.
On to “MGSDKIHHHHHHMLCSRYFTSSLFLWGEALPTLLEEFLNEVEKMLKNQVNTRRIHQLLKELDDPLLENKDLEEKLQAFLDYVKEIPNLPEARKRYRIQKSLEMIEKLRSWFLIDYLECSGEEVDLSTDIQYAKGVGPNRKKKLKKLGIETLRDLLEFFPRDYEDRRKIFKLNDLLPGEKVTTQGKIVSVETKKFQNMNILTAVLSDGLVHVPLKWFNQDYLQTYLKQLTGKEVFVTGTVKSNAYTGQYEIHNAEVTPKEGEYVRRILPIYRLTSGISQKQMRKIFEENIPSLCCSLKETLPERILEKRKLLGVKDAYYGMHFPKTFYHLEKARERLAYEELFVLQLAFQKIRKEREKHGGIPKKIEGKLAEEFIKSLPFKLTNAQKRAHQEIRNDMISEKPMNRLLQGDVGSGKTVVAQLAILDNYEAGFQTAFMVPTSILAIQHYRRTVESFSKFNIHVALLIGATTPSEKEKIKSGLRNGQIDVVIGTHALIQEDVHFKNLGLVIIDEQHRFGVKQREALMNKGKMVDTLVMSATPIPRSMALAFYGDLDVTVIDEMPPGRKEVQTMLVPMDRVNEVYEFVRQEVMRGGQAFIVYPLIEESDKLNVKSAVEMYEYLSKEVFPEFKLGLMHGRLSQEEKDRVMLEFAEGRYDILVSTTVIEVGIDVPRANVMVIENPERFGLAQLHQLRGRVGRGGQEAYCFLVVGDVGEEAMERLRFFTLNTDGFKIAEYDLKTRGPGEFFGVKQHGLSGFKVADLYRDLKLLEWAREDVQEIDVEGIELPEEIKLIEVG”, for which the “soluble on expression in E. coli” value is recorded as “not soluble”.
In the case of “SNAMANTSSDWAGAPQNASADGEFVRDTNYIDDRIVADVPAGSEPIAQEDGTFHWPVEAGRYRLVAARACPWAHRTVITRRLLGLENVISLGLTGPTHDVRSWTFDLDPNHLDPVLQIPRLQDAYFNRFPDYPRGITVPALVEESSKKVVTNDYPSITIDFNLEWKQFHREGAPNLYPAELREEMAPVMKRIFTEVNNGVYRTGFAGSQEAHNEAYKRLWVALDWLEDRLSTRRYLMGDHITEADIRLYPTLVRFDAVYHGHFKCGRNKITEMPNLWGYLRDLFQTPGFGDTTDFTEIKQHYYITHAEINPTRIVPVGPDLSGFATPHGREKLGGSPFAEGVTLPGPIPAGEEVKNPEPFQK”, the “soluble on expression in E. coli” value is recorded as “soluble”.
Consider “MGSDKIHHHHHHMPNIEKYEIFLDFNGNEYEGVEKIYLNSEEEKLELDSVNLEIRSVKSDGKDTKFELKGEKLVIYGKIERELEIKFKGKASRDSILGIYVAPYDGKGMITTQFEAVYARRFIPCFDHPAMKARFKLSVRVQKGLKVISNMPVERIEEDVDGKVIYRFQETPKMSTYLLYLGIDEFEEISDNSKQPTVILATVPGKSKRGLFAINVARKVIEFYEKYFEIPYQLPKVHLIQVPEFAAGAMENWGAITFRETALLADDSSSISQKFRVAEVVAHELAHQWFGNLVTLKWWDDLWLNESFATFMSYKSIKHLFPQWDSEGHLIYDESIGALEDDSLSTTHPIEAHVKDPHEIEQMFDNISYGKGASILKMIEAYVGEENFRRGVVNYLNSFKFGNAEGKDLWNSISNAAGQSIGEIMADWITKPGYPVIFVNAYGNSIRFSQKRFTLLDSGLNEVYKVPITYEINDKFGTLLLDKESAEIRLDEGLKSIKVNINRTGFYRVLYDSLNLAFSSKLNAYEELGLVNDYWNFLLADLIDAKTYFGVIGRFVYTSNSFVSREITSQLLTLYYLFKKNYGKDFLVNQVKIFRKANDDLGKLAYSTVISALARMDEEFALGLSTLFDQYENIDSNIKEAVAIAYAVTNNDFNTLLEKYKRYTIDEEKNRILSAISSLRDPSIVVKVFSLIFERNIKAQDTRFVISSLLHNPHIREEVCSYLMNNFEEVKKFVNTVYGGPWGLGSIVRSMSFCGVDKPKDIIDFLEKVKFKEIERPIKESEERIKVYSRLKQNLP”, for which the “soluble on expression in E. coli” value is given as “not soluble”.
The value for “GPGSMLDRLSCLGPRTKRWLHNNLRGRYVRVCTREQHSRKQLTPAGGPQGSALRPQLFLHCVDDLLRRMDNIYSASALMYADDLTVVASGAGTHACAAAMPPALSLITAWAAEHNHKINVDKSEAALFHISSHTRSDDEMVNLHLGNGKLRIQSRPVRLLDTTMDQLLNFDYARFHRFK” was “not soluble”.
As to “MGSDKIHHHHHHVNSDNNPNQISDIKPILKVYIENSGSMDGYMCDGSQLKDAIFDYVSDLSTCVDTTQLYYINNRVIPYHADLEQYIKTMNPITFQKAGGNRSNSDLSKMLSTVLDAMTDSTVSIFVSDCILDLPVSDAQRFLSTCQISIKNTINKGRKNIPLLGVEILKMKSDFNGKYFYQNGGSEVLTNVKRPYYIWIFGNSNVLAKLNTEVLFKGLEKYGYDNIISYCPKTSIPYDITNRALISKTINPIKGDYNATIRADFCTTLQSEDVLLNLDNYSFNNQNLIIENIKPIIATEREYSHFINITIPKGVNIAEDYLILKAPNMPSWVLESNDESGENVKGNLDKTTGIKYLIGGVSDAYKKDNVLTTLKFTVKRK”, the “soluble on expression in E. coli” value is “not soluble”.
The value for “MAHHHHHHMPTYVGKEAPFFKAEAVFGDNSFGEVNLTQFIGKKYVLLYFYPLDFTFVCPSEIIALDKALDAFHERNVELLGCSVDSKYTHLAWKKTPLAKGGIGNIKHTLLSDITKSISKDYNVLFDDSVSLRAFVLIDMNGIVQHLLVNNLAIGRSVDEILRIIDAIQHHEKYGDVCPANWQKGKVSMKPSEEGVAQYLSTL” was “not soluble”.

Values taken from the DeepSol protein solubility set.
